Data from article PMC8319186, “Mitochondrial adaptor TRAK2 activates and functionally links opposing kinesin and dynein motors” (Nature Communications, 2021).

Tests used:
[1] = target: dynein heavy chain (endogenous, COS-7); assay: co-immunoprecipitation (Halo antibody IP, western blot quantification); conditions: extracts from COS-7 cells transfected with Myc-KIF5B and Halo-tagged constructs; mean ± s.d. from three independent experiments; parent: est. 0.21; read off a plot
Myc-KIF5C-Halo = target: T1, Myc-KIF5C-Halo (mouse, UniProt P28738 1-956); assay: cell-based or functional assay
T1 sequence (looked up): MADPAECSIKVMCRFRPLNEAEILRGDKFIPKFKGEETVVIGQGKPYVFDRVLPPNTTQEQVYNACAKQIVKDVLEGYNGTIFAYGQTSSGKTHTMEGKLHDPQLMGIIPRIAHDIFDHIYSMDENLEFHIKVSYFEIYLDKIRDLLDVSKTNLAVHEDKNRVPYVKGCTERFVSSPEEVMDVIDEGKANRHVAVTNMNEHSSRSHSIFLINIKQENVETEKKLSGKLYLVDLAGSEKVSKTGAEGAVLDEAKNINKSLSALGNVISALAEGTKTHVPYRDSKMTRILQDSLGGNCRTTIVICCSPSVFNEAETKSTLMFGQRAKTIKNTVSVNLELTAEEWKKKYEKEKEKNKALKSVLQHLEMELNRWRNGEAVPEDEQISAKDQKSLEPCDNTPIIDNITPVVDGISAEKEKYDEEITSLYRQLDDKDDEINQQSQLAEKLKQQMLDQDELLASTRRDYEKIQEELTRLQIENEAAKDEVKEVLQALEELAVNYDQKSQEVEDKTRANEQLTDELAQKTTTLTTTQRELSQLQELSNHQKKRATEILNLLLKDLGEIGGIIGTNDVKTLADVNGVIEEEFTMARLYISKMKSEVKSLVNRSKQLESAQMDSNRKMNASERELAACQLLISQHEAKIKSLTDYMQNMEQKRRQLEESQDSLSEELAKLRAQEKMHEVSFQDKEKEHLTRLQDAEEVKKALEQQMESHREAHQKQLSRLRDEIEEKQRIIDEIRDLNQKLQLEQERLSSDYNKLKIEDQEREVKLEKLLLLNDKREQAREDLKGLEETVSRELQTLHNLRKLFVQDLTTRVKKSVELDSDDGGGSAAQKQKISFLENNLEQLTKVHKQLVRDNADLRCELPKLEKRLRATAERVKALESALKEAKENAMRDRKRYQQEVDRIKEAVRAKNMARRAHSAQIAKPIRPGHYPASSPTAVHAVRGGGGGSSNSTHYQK

“Halo-TRAK2 (from UniProt O60296) A129V; A130V” gave a response [1] of 0.08.

With Halo-TRAK2 (from UniProt O60296) I132D the response [1] was 0.07.

B1: HA-TRAK2 (natural protein, UniProt O60296 1-914, looked up)
chain: MSQSQNAIFTSPTGEENLMNSNHRDSESITDVCSNEDLPEVELVSLLEEQLPQYRLKVDTLFLYENQDWTQSPHQRQHASDALSPVLAEETFRYMILGTDRVEQMTKTYNDIDMVTHLLAERDRDLELAARIGQALLKRNHVLSEQNESLEEQLGQAFDQVNQLQHELCKKDELLRIVSIASEESETDSSCSTPLRFNESFSLSQGLLQLEMLQEKLKELEEENMALRSKACHIKTETVTYEEKEQQLVSDCVKELRETNAQMSRMTEELSGKSDELIRYQEELSSLLSQIVDLQHKLKEHVIEKEELKLHLQASKDAQRQLTMELHELQDRNMECLGMLHESQEEIKELRSRSGPTAHLYFSQSYGAFTGESLAAEIEGTMRKKLSLDEESSLFKQKAQQKRVFDTVRIANDTRGRSISFPALLPIPGSNRSSVIMTAKPFESGLQQTEDKSLLNQGSSSEEVAGSSQKMGQPGPSGDSDLATALHRLSLRRQNYLSEKQFFAEEWQRKIQVLADQKEGVSGCVTPTESLASLCTTQSEITDLSSASCLRGFMPEKLQIVKPLEGSQTLYHWQQLAQPNLGTILDPRPGVITKGFTQLPGDAIYHISDLEEDEEEGITFQVQQPLEVEEKLSTSKPVTGIFLPPITSAGGPVTVATANPGKCLSCTNSTFTFTTCRILHPSDITQVTPSSGFPSLSCGSSGSSSSNTAVNSPALSYRLSIGESITNRRDSTTTFSSTMSLAKLLQERGISAKVYHSPISENPLQPLPKSLAIPSTPPNSPSHSPCPSPLPFEPRVHLSENFLASRPAETFLQEMYGLRPSRNPPDVGQLKMNLVDRLKRLGIARVVKNPGAQENGRCQEAEIGPQKPDSAVYLNSGSSLLGGLRRNQSLPVIMGSFAAPVCTSSPKMGVLKED
For B1, the “frequency of KIF5C runs along dynamic microtubules (single-molecule TIRF of COS-7 lysate) with against without exogenous HA-TRAK2” value (Myc-KIF5C-Halo) was > 3 fold.
